Test results as given in patent US20210332123A1 (SUZHOU KANOVA BIOPHARMACEUTICAL, published 2021).

How the values were obtained:
Experiment in all cases: ELISA (FIG. 4)
human IL-17B = biological target: T1, human IL-17B (human, UniProt Q9UHF5 21-180)
T1 sequence (looked up): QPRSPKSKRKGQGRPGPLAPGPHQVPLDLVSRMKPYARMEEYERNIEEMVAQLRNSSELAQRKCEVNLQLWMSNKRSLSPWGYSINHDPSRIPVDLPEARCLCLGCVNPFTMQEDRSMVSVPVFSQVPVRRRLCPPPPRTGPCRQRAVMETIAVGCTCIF
Procedure: (§1) MaxiSorp 96-well plates (NUNC #449824, www.thermofisher.com) were coated with 2 μg/ml human IL-17A (Cell Signaling #89285F, www.cellsignal.com), human IL-17F (Cell Signaling #8906LC, www.cellsignal.com), human IL-17B (Peprotech #200-28, www.peprotech.com), human IL-17C (R&D systems #1234-IL-025/CF, www.rndsystems.com), human IL-17D ((Peprotech #200-27, www.peprotech.com), human IL-17E (R&D systems #1258-IL-025/CF, www.rndsystems.com) in 1×PBS (50 μl/well) respectively. Plates were incubated at 4° C. overnight. Coating solution was removed and plates were washed once with 200 μl/well PBST (1×PBS with 0.05% tween-20). Then 200 μl/well blocking buffer (1×PBS with 0.05% tween-20, 3% BSA) was added and incubated at room temperature for 1 hour. Blocking buffer was removed and plates were washed three times with 200 μl/well PBST (1×PBS with 0.05% tween-20). The anti-IL-25 antibodies (produced in Example 2), were diluted to 10, 3.33, 1.11, 0.37, 0.123, 0.041, 0.0137, 0.0046, 0.0015, 0.00031, 0.000102, 0.000034 μg/ml by 1×PBS and added to the plates (50 μl/well). Plates were incubated at room temperature for 2 hours. Antibodies in the wells were removed and plates were washed three times with 200 μl/well PBST (1×PBS with 0.05% tween-20) each time. Goat anti-human IgG(H&L)-HRP secondary antibody (Jackson Immuno Research #109-035-088, www.jacksonimmuno.com) was diluted 1:5000 in 1×PBS and added to each well (50 μl/well). Plates were incubated at room temperature for 1 hour. Secondary antibody was removed and plates were washed seven times with 200 μl/well PBST (1×PBS with 0.05% tween-20) each time. 50 μl/well TMB (eBioscience #85-00-4201-56, www.ebioscience.com) was added and plates were incubated at room temperature for several minutes. Then 50 μl/well 2N H₂SO₄ was added to stop the reaction. Plates were read at 450 nm.

human IL-17F = biological target: T2, human IL-17F (human, UniProt Q96PD4 31-163)
T2 sequence (looked up): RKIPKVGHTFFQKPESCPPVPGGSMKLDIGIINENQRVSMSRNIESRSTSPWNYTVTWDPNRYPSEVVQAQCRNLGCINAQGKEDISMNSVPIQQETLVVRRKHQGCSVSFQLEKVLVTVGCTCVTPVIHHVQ
Procedure: as §1

human IL-17D = biological target: T3, human IL-17D (human, UniProt Q8TAD2 18-202, limits assumed)
T3 sequence (looked up): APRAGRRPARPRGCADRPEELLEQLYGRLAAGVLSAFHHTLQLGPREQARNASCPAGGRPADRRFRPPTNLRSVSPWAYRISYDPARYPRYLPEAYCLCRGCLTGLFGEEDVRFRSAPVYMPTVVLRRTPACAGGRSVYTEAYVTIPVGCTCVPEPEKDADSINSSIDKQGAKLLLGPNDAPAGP
Procedure: as §1

Measured: binding result

B1: murine anti-IL-25 monoclonal antibody 18H3 (antibody, V domains shown)
VH: QVTLKESGPGILQPSQTLSLTCSFSGFSLSTSGMGLGWIRQPSGKGLEWLAHIWWDDVKHYKPALKSRLTISKDISSSQVFLTIASVDTADTATYYCARMGQLHYYGYDYAMDYWGQGTSVTVSS
VL: QIVLTQSPAIMSASPGEKVTISCSASSSVSYMYWYQQKPGSSPKPWIYRTSNLASGVPARFSGSGSGTSYSLTISSMEAEDAATYYCQLYHSYPPTWTFGGGTKLEIK
notes: also called parental antibody; parental murine mAb
no binding: human IL-17B | human IL-17F | human IL-17D
